From paper PMC5795435 come the findings set out here.

A word on the stoichiometry N: it is a count of units in the complex or per binding partner.

Common to all, as to assay: cryo-EM structure
The target in experiment [1] is Bufavirus 3 (BuV3) VP2, assembled as virus-like particles (Bufavirus 3 (BuV3)).
The target of experiment [2] is Bufavirus 1 (BuV1) VP2, assembled as virus-like particles (Bufavirus 1 (BuV1)).
The target in experiment [3] is Bufavirus 2 (BuV2) VP2, assembled as virus-like particles (Bufavirus 2 (BuV2)).

For “Bufavirus 3 (BuV3) VP2, assembled as virus-like particles (natural protein)”, in experiment [1], the stoichiometry N was 60.

On to “Bufavirus 1 (BuV1) VP2, assembled as virus-like particles (natural protein)”, for which the stoichiometry N in experiment [2] is 60.

In turn, “Bufavirus 2 (BuV2) VP2, assembled as virus-like particles (natural protein)” showed a stoichiometry N in experiment [3] of 60.
